Measurements taken from patent US20170218047A1, “NOVEL FUSION PARTNERS FOR THE PURPOSE OF CRYSTALLIZING G-PROTEIN COUPLED RECEPTORS” (THE SCRIPS RESEARCH INSTITUTE, priority 2011, published 2017).

Experiment: Size exclusion chromatography (SEC) of purified S1P1-fusion partner proteins
Assay type: physicochemical
Settings: presence or absence of ligand
Protocol: S1P1-fusion partner proteins (“S1P1 fusion receptors”) were purified from membranes by dodecyl-maltoside (DDM) extraction followed by immobilized metal affinity chromatography (IMAC) on Talon resin (Clontech) as detailed below. Frozen cellular membranes were thawed by adding room temperature lysis buffer to a total volume of 25 mL. The S1P1 receptor antagonist W146 was added to a final concentration of 125 μM. The mixture was allowed to incubate at room temperature for 1 hour to ensure complete saturation of the receptor with ligand followed by addition of iodoacetamide to a concentration of 1 mg/mL and an additional 1 hour incubation at 4° C. Receptor solubilization was initiated by addition of detergent and cholesteryl hemisuccinate (CHS) to achieve a final concentration of 0.5% DDM 0.1% CHS. The solubilization buffer consisted of the following mixture: 50 mM Hepes pH 7.5; 800 mM NaCl; 30 mM Imidazole; 0.1% DDM 0.02% CHS; 125 μM W146. […]
Eluted proteins were analyzed by size-exclusion chromatography (SEC) followed by SDS-PAGE. […] SEC fractions corresponding to S1P1-fusion partner proteins were evaluated separated by SDS-PAGE on a 10% gel and stained, confirming that each S1P1-fusion partner protein could be purified to near-homogeneity (data not shown).

B1: S1P1-flavodoxin: S1P1 receptor with flavodoxin replacing part of ICL3, SEQ ID NO: 3 (protein, listed as Homo sapiens)
chain: MGPTSVPLVKAHRSSVSDYVNYDIIVRHYNYTGKLNISADKENSIKLTSVVFILICCFIILENIFVLLTIWKTKKFHRPMYYFIGNLALSDLLAGVAYTANLLLSGATTYKLTPAQWFLREGSMFVALSASVFSLLAIAIERYITMLKMKLHNGSNNFRLFLLISACWVISLILGGLPIMGWNCISALSSCSTVLPLYHKHYILFCTTVFTLLLLSIVILYCRIYSLVRTRAKALIVYGSTTGNTEYTAETIARELADAGYEVDSRDAASVEAGGLFEGFDLVLLGCSTWGDDSIELQDDFIPLFDSLEETGAQGRKVACFGCGDSSWEYFCGAVDAIEEKLKNLGAEIVQDGLRIDGDPRAARDDIVGWAHDVRGAIASRSSENVALLKTVIIVLSVFIACWAPLFILLLLDVGCKVKTCDILFRAEYFLVLAVLNSGTNPIIYTLTNKEMRRAFIRIM
In the case of B1, the “stability by SEC (in words)” value is reported as “stable in the presence or absence of ligand”.
